Source: PMC4622731 (mAbs, 2015)
One block for each molecule: values may come before it.

How the values were obtained:
[1] = target: biotinylated human IL-1β (Homo sapiens) (UniProt P01584); assay: ELISA; mAb or DVD-Ig (2 μg/mL) captured by anti-human Fc antibody coated on the plate; biotinylated human IL-1α or IL-1β titrated 1000 ng/mL to 0.597 pg/mL, 1 hour at 25°C; peroxidase-labeled streptavidin
[2] = target: biotinylated human IL-1α (Homo sapiens) (UniProt P01583); assay: as above
human IL-1α (human) [3] = target: human IL-1α (human) (UniProt P01583); assay: SPR; Biacore 3000; mAb or DVD-Ig captured by goat anti-human IgG Fc on a CM5 chip; IL-1 10-200 nM flowed at 25 μL/min; HBS-EP (10 mM HEPES pH 7.4, 150 mM NaCl, 3 mM EDTA, 0.005% P20), 25°C; 1:1 Langmuir global fit, KD = koff/kon
Chain of human IL-1α (human) (P01583 whole entry): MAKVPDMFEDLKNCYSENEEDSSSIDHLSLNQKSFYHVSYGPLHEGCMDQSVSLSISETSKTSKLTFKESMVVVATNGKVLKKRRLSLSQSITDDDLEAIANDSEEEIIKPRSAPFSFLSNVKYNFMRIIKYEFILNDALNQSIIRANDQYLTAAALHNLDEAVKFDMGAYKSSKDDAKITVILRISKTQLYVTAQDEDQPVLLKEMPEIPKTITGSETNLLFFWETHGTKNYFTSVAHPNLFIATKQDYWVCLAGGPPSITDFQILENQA

human IL-1β (human) [4] = target: human IL-1β (human) (UniProt P01584); assay: as above
Chain of human IL-1β (human) (P01584 whole entry): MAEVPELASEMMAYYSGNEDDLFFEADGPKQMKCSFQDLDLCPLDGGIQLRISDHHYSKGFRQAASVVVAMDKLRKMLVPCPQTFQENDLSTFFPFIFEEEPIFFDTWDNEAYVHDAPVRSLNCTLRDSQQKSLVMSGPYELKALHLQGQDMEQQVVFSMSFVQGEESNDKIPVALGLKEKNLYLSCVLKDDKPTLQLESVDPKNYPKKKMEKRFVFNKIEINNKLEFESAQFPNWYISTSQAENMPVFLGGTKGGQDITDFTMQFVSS

[5] = target: cynomolgus IL-1α (Macaca fascicularis) (UniProt P79340); assay: as above
Chain of cynomolgus IL-1α (Macaca fascicularis) (P79340 whole entry): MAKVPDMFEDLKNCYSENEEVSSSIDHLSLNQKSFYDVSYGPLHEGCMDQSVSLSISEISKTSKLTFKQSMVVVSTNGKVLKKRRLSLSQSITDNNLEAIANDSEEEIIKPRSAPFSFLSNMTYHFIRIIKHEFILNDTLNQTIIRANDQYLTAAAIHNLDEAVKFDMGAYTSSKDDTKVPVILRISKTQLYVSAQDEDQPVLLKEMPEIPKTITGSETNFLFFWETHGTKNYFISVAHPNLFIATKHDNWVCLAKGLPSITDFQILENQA

[6] = target: cynomolgus IL-1β (Macaca fascicularis) (UniProt P79182); assay: as above
Chain of cynomolgus IL-1β (Macaca fascicularis) (P79182 whole entry): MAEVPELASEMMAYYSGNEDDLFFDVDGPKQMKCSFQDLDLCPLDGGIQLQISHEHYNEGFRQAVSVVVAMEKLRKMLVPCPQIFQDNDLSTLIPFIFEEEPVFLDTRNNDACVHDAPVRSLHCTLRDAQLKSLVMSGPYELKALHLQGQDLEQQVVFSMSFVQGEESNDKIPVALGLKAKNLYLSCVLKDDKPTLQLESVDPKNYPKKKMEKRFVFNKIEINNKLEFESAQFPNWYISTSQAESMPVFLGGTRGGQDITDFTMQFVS

human IL-1α (human) [7] = target: human IL-1α (human) (UniProt P01583)
human IL-1β (human) [8] = target: human IL-1β (human) (UniProt P01584)
[9] = target: cynomolgus IL-1α (Macaca fascicularis) (UniProt P79340)
[10] = target: cynomolgus IL-1β (Macaca fascicularis) (UniProt P79182)
human IL-1α (human) [11] = target: human IL-1α (human) (UniProt P01583); remark: listed apart in the source
human IL-1β (human) [12] = target: human IL-1β (human) (UniProt P01584); remark: listed apart in the source
[13] = target: cynomolgus IL-1α (Macaca fascicularis) (UniProt P79340); remark: listed apart in the source
[14] = target: cynomolgus IL-1β (Macaca fascicularis) (UniProt P79182); remark: listed apart in the source
human IL-1β [15] = target: T1, human IL-1β (Homo sapiens, UniProt P01584); assay: SPR; Biacore 3000; mAb or DVD-Ig captured by goat anti-human IgG Fc on a CM5 chip; IL-1 10-200 nM flowed at 25 μL/min; HBS-EP (10 mM HEPES pH 7.4, 150 mM NaCl, 3 mM EDTA, 0.005% P20), 25°C; 1:1 Langmuir global fit, KD = koff/kon; settings: both partners purified
T1 construct: interleukin-1 beta, human, recombinant; also called recombinant human IL-1β; source: recombinant, AbbVie
T1 sequence (P01584 whole entry): as the sequence (P01584 whole entry) above

human IL-1β [16] = target: T1, human IL-1β; assay: cell-based or functional assay

EC50 [1]: 0.0075 nM | EC50 [2]: 0.0064 nM | Kd (human IL-1α (human) [3]): 0.0076 nM | Kd (human IL-1β (human) [4]): 0.021 nM | Kd [5]: 0.411 nM | Kd [6]: 0.0153 nM | ED50, Average: dose of ABT-981 inhibiting mouse IL-6 induced by 30 ng human IL-1α in C57/BL6 mice (human IL-1α (human) [7]): 0.005 mg/kg | ED50, Expt #1: dose of ABT-981 inhibiting mouse IL-6 induced by 30 ng human IL-1α in C57/BL6 mice (human IL-1α (human) [7]): 0.007 mg/kg | ED50, Expt #2: dose of ABT-981 inhibiting mouse IL-6 induced by 30 ng human IL-1α in C57/BL6 mice (human IL-1α (human) [7]): 0.002 mg/kg | ED80, Average: dose of ABT-981 inhibiting mouse IL-6 induced by 30 ng human IL-1α in C57/BL6 mice (human IL-1α (human) [7]): 0.104 mg/kg | ED80, Expt #1: dose of ABT-981 inhibiting mouse IL-6 induced by 30 ng human IL-1α in C57/BL6 mice (human IL-1α (human) [7]): 0.17 mg/kg | ED80, Expt #2: dose of ABT-981 inhibiting mouse IL-6 induced by 30 ng human IL-1α in C57/BL6 mice (human IL-1α (human) [7]): 0.04 mg/kg | ED50, Average: dose of ABT-981 inhibiting mouse IL-6 induced by 30 ng human IL-1β in C57/BL6 mice (human IL-1β (human) [8]): 0.016 mg/kg | ED50, Expt #1: dose of ABT-981 inhibiting mouse IL-6 induced by 30 ng human IL-1β in C57/BL6 mice (human IL-1β (human) [8]): 0.02 mg/kg | ED50, Expt #2: dose of ABT-981 inhibiting mouse IL-6 induced by 30 ng human IL-1β in C57/BL6 mice (human IL-1β (human) [8]): 0.012 mg/kg | ED80, Average: dose of ABT-981 inhibiting mouse IL-6 induced by 30 ng human IL-1β in C57/BL6 mice (human IL-1β (human) [8]): 0.28 mg/kg | ED80, Expt #1: dose of ABT-981 inhibiting mouse IL-6 induced by 30 ng human IL-1β in C57/BL6 mice (human IL-1β (human) [8]): 0.27 mg/kg | ED80, Expt #2: dose of ABT-981 inhibiting mouse IL-6 induced by 30 ng human IL-1β in C57/BL6 mice (human IL-1β (human) [8]): 0.32 mg/kg | ED50, Average: dose of ABT-981 inhibiting mouse IL-6 induced by 30 ng cynomolgus IL-1α in C57/BL6 mice [9]: 6.5 mg/kg | ED50, Expt #1: dose of ABT-981 inhibiting mouse IL-6 induced by 30 ng cynomolgus IL-1α in C57/BL6 mice [9]: 5.2 mg/kg | ED50, Expt #2: dose of ABT-981 inhibiting mouse IL-6 induced by 30 ng cynomolgus IL-1α in C57/BL6 mice [9]: 7.7 mg/kg | ED80, Average: dose of ABT-981 inhibiting mouse IL-6 induced by 30 ng cynomolgus IL-1α in C57/BL6 mice [9]: 18.2 mg/kg | ED80, Expt #1: dose of ABT-981 inhibiting mouse IL-6 induced by 30 ng cynomolgus IL-1α in C57/BL6 mice [9]: 16.1 mg/kg | ED80, Expt #2: dose of ABT-981 inhibiting mouse IL-6 induced by 30 ng cynomolgus IL-1α in C57/BL6 mice [9]: 20.2 mg/kg | ED50, Average: dose of ABT-981 inhibiting mouse IL-6 induced by 30 ng cynomolgus IL-1β in C57/BL6 mice [10]: 0.004 mg/kg | ED50, Expt #1: dose of ABT-981 inhibiting mouse IL-6 induced by 30 ng cynomolgus IL-1β in C57/BL6 mice [10]: 0.002 mg/kg | ED50, Expt #2: dose of ABT-981 inhibiting mouse IL-6 induced by 30 ng cynomolgus IL-1β in C57/BL6 mice [10]: 0.006 mg/kg | ED80, Average: dose of ABT-981 inhibiting mouse IL-6 induced by 30 ng cynomolgus IL-1β in C57/BL6 mice [10]: 0.094 mg/kg | ED80, Expt #1: dose of ABT-981 inhibiting mouse IL-6 induced by 30 ng cynomolgus IL-1β in C57/BL6 mice [10]: 0.098 mg/kg | ED80, Expt #2: dose of ABT-981 inhibiting mouse IL-6 induced by 30 ng cynomolgus IL-1β in C57/BL6 mice [10]: 0.11 mg/kg | Neutralization potency IC50, MRC-5 cell bioassay: IL-8 release on 3 pM human IL-1α (human IL-1α (human) [11]): 16.2 pM | Neutralization potency IC50, MRC-5 cell bioassay: IL-8 release on 3 pM human IL-1β (human IL-1β (human) [12]): 16 pM | Neutralization potency IC50, MRC-5 cell bioassay: IL-8 release on 3 pM cynomolgus IL-1α [13]: 955 pM | Neutralization potency IC50, MRC-5 cell bioassay: IL-8 release on 3 pM cynomolgus IL-1β [14]: 8.4 pM
Molecule: ABT-981 (bispecific antibody)

Kd (human IL-1β [15]): 0.242 nM | Neutralization potency IC50, MRC-5 cell bioassay: IL-8 release on 3 pM human IL-1β (human IL-1β [16]): 400 pM
B1: humanized SK48-E26 mAb (antibody, V domains shown)
VH: EVQLVESGGGVVQPGRSLRLSCSSSGFIFSSYDMSWVRQAPGKGLEWVAYISSGGGGTYYPDTVKGRFTISRDNSKNTLFLQMDSLRPEDTGVYFCARGGVTKGYFDVWGQGTPVTVSS
VL: DIQMTQSPSSLSASVGDRVTITCRASGNIHNYLTWYQQTPGKAPKLLIYNAKTLADGVPSRFSGSGSGTDYTFTISSLQPEDIATYYCQHFWSIPYTFGQGTKLQIT
